Results published in patent US20190248902A1 (published 2019).
Substitutions are numbered along the chain they refer to.

B1: 184E7 (antibody, V domains shown)
VH: QVQLVQSGAEVKTPGASVKVSCRASGYTFTSYNMHWVRQVPGQGLEWMGWINPNNGGSNYTQKFQGRVTMTRDTSISTAYMELSRLRSDDTAVYYCARKFGDWGQGTLVTVSS
VL: DIQMTQSPSSRSASIGERVTITCRASQGISNYLAWIQQKPGTAPKSLIYAASSLQSGVSSRFSGSGFGTDFTITISSVQREDFATYYCQQYNGYPFTFGHGTKVDIK
notes: hybridoma mAb
B2: 194A4 (antibody, V domains shown)
VH: QVQLVQSGTEVKKPGASLKVSCKASGYTFTVYYLNWVRQAPGQGLEWMGWINPNSGGTNYAQKFQGRVTMTRDTSISTAYMELSRLRSDDTAVYYCARGYDILTGWGQGTLVTVSS
VL: EIVLTQSPGTLSLSPGERATLSCRASRGVSNIYLAWYQQKPGQAPRLLIYGASNRATGIPDRFSGSGSGTDFTLTISRLEPEDFAVYYCQHNDYSMFTFGPGTKVDIK
notes: hybridoma mAb
B3: 208A2 (antibody, V domains shown)
VH: QVQLQESGPGLVKPSETLSLNCTVSGGSIRSYYWSWIRQPAGKGLEWIGRIYTSGSTDYNPSLKSRITMSVDTSKNQFSLKLSSVTAADTAVYYCARGFGDWDYWGQGTLVTVSS
VL: DIQMTQSPSSLSASVGDRVTITCRTSQGIRNDLGWYQQQPGKTPKRLIYAASSLLSGVPSRFSGSRSGTDFTLTISSLQPEDFATYYCLQYNSYPPTFGQGTRLEIK
notes: hybridoma mAb
B4: 210G10 (antibody, V domains shown)
VH: B3 VH
VL: B3 VL with C23F, L47M, L55F
notes: hybridoma mAb
B5: 4B1 (antibody, V domains shown)
VH: QVQLQESGPGLVKPSETLSLTCSVSGDSISSYSWSWIRQPAGKGLEWIGRIYTSGSTNYIPSLKSRITMSVDTSKKQFSLKLSSVTAADTAVYYCARDLKSSGCLFFDYWGQGTLVTVSS
VL: DIQMTQSPSSLSASVGDRVTITCRASHTIRTYLNWYQQKPGKAPKLLIYAASSLQSGVPSRINGSGSGTDFTLTITNLQPEDFATYYCQQSYNISFTFGPGTKVDIK
notes: hybridoma mAb
B6: 62H10 (antibody, V domains shown)
VH: EVQLVESGGGLVKPGGSLRLSCAASGFTFSSYSMNWVRQAPGKGLEWVSSISSSSSYIYYADSVKGRFTISRDNAKNSLYLQMNSLRAEDTAVYYCARGGSRGFDPWGQGTLVTVSS
VL: DIQMTQSPSSLSASVGDRVTITCRASQSITSYLNWYQQKPGKVPKLLISTASSLQSGVPSRFSGSGSGTDFTLTISSLQPEDFATYYCQQSHSFPFTFGPGTNVDFK
notes: hybridoma mAb
B7: 72G9 (antibody, V domains shown)
VH: B6 VH with S53G, Y95F
VL: B6 VL with V43A, S49Y, N103K, F106I
notes: hybridoma mAb
B8: 60G2 (antibody, V domains shown)
VH: QVQLVESGGGVVQPGRSLRLSCAASGFTFSSYGMHWVRQAPGKGLEWVAVIWYDGSNKYYADSVKGRFTISRDNSKNTLYLQMNSLRAEDTAVYYCARRYSRSWTGGMDVWGQGTTVTVSS
VL: DIVMTQTPLSLSVTPGQSASISCKSSQSLLHSEGKTYLYWYLQKPGQPPQLLIYEVSNRISGVPDRFSGSGSGTDFTLKISRVEAEDVGVYYCMQSIQLPLTFGGGTKVEIK
notes: hybridoma mAb
B9: 47C1 (antibody, V domains shown)
VH: B8 VH with S31D, A40T, Y80F, A88D, T105V
VL: B8 VL with S18P, K24T, I60F, Y91F, L101W, G105Q
notes: hybridoma mAb
B10: 60C12 (antibody, V domains shown)
VH: B8 VH with A61V
VL: B8 VL with S18P, L51F, I60F, V90I, Q98K, L99Y
notes: hybridoma mAb
B11: 148H10 (antibody, V domains shown)
VH: B8 VH with A61G, R102S, T105S
VL: B8 VL with S18P, N58Y, I60V
notes: hybridoma mAb
B12: 173C11 (antibody, V domains shown)
VH: B8 VH with M34I, V50L, W52F, Q82H, N84S, R102S, T105S
VL: DIVMTQTPLSLSVTPGQPASISCKSSQSLLHSEGKTYLYWYLQKPGQPPQLLIYEVSHRFSGVPDRFSGSGSGTDFTLKISRVEAEDVGVYYCMQSIQLLTFGGGTKVEIK
notes: hybridoma mAb
B13: 179C2 (antibody, V domains shown)
VH: B8 VH with V50L, W52F, Y80F, R102G, T105S
VL: B12 VL with L99V
notes: hybridoma mAb
B14: 49C1 (antibody, V domains shown)
VH: B8 VH with A23T, R102S, T105S
VL: DIVMTQTPLSLSVTPGQPASISCKSSQSLLHREGKTYLYWYLQKPGQAPQFLIFEVSHRFSGVPDRFSGSGSGTDFTLKISRVEAEDVGVYYCMQSIQIPITLGQGTRLEIK
notes: hybridoma mAb
B15: 65D5 (antibody, V domains shown)
VH: QVQLVQSGAEVKKPGASVKVSCKASGYTFPSYGISWVRQAPGQGLEWMGWISAYSGNTNYAQKLQGRVTMTTDTSTSTAYMELRSLRSDDTAVYFCARGEAVAVFDPWGQGTLVTVSS
VL: DIQMTQSPSSLSASVGDRVTITCRASQDINNYLAWFQQKPGKAPRSLIYAASSLHSGVPSQFSASGSGSDFTLTISSLQPEDFATYYCPLYKSYPLTFGPGTKVDIK
notes: hybridoma mAb
B16: 66H11 (antibody, V domains shown)
VH: B15 VH with P30A, S31T, S55N, F95Y
VL: DIQMTQFPSSLFAFVGDRVTITCPASQGISNYLAWFQQKPGKAPKSLIYGAFNLHSGVPSKFSGSGFGTDFTLTINSLQPEDFANYYCQQYSCYPFTFGHGTKVDIK
notes: hybridoma mAb
B17: 73G1 (antibody, V domains shown)
VH: QVQLVESGGGVVQPGRSLRLSCAGTGFTFSYYGMHWVRQAPGKGLEWVAVTTYDGSNKYYADSVKGRFTSSRDNSKNTLYLQMNSLRAEDTAVYHCARETGTWAFDIWGQGTMVTVSL
VL: QTVVTQEPSFSVSPGGTVTLTCGLSSGSVSTSYYPSWYQQTPGQAPRTLIYNTNTRSSGVPDRFSGSILGNKAALTITGAQADDESDYYCVLYMGSAIWVFGGGTKLTVL
notes: hybridoma mAb
B18: 51E3 (antibody, V domains shown)
VH: QVQLVQSGAEVKKPGASVKVSCKASGYTFNSYGISWVRLAPGQGLEWMGWISAYNGNTKNAQRFQGRVTMTTDTSTSTAYMELRSLRSDDTAVYYCARHDFWSGYYKGMDVWGQGTTVTVSS
VL: not shown
notes: hybridoma mAb
B19: 53E8 (antibody, V domains shown)
VH: B18 VH with L39Q, N60F, R63K, F64L
VL: not shown
notes: hybridoma mAb
B20: 54E9 (antibody, V domains shown)
VH: B18 VH with R63K, F64L
VL: not shown
notes: hybridoma mAb
B21: 56E3 (antibody, V domains shown)
VH: B18 VH with I34F, L39Q, N60E, R63K, S88A
VL: not shown
notes: hybridoma mAb
B22: 190E6 (antibody, V domains shown)
VH: QVQLVESGGGVVQPGRSLRLSCAASGFTFSSYGMHWVRQAPGKGLEWVAVIWYDGSNKNYADSVKGRFTISRDNSKNTLYLQMNSLRAEDTAVYYCARDQGVGYDGLDVWGQGTTVTVSS
VL: DIQMTQSPSSLSASVGDRVTITCRTSQGIGNYLAWFQQKPGKAPKSLLYKASSLQSGVPSKFSGSGSGTDFTLTISSLQPEDFATYYCQQYMTYPLTFGGGTKVEIK
notes: hybridoma mAb
B23: 190C11 (antibody, V domains shown)
VH: B22 VH
VL: B22 VL with A51T
notes: hybridoma mAb

Biological target: T1, recombinant, soluble human ASGR-1 (human, UniProt P07306 62-291)
T1 construct: biotinylated in the binning assay; also called soluble huASGR-1; Soluble ASGR-1 (Amgen)
T1 sequence: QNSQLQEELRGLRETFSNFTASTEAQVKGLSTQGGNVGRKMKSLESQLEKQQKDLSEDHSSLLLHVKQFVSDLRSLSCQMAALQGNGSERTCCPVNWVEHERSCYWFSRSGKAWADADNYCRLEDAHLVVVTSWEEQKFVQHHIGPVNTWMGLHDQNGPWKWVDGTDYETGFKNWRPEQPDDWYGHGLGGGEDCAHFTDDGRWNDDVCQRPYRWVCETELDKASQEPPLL
Assay: Octet BLI dissociation, pH 5.6 plus calcium
Method in brief: (§1)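 Antibodies were captured on anti-human Fc biosensors, and soluble ASGR-1 (6 ug/ml) was associated for 2 min in Tris buffer containing 1 mM CaCl2 at pH 7.4, followed by 10 min dissociation under each test condition. The signal at the end of association was set as 100%. Percent ASGR-1 still bound after 1 min of dissociation was compared with the pH 7.4 plus calcium control, and >10% extra dissociation was scored as sensitive.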

Binder	% Change Compared to pH 7.4 + Calcium [%]
B1	-9
B2	-7
B3	-10
B4	-10
B5	-5
B6	-2
B7	-7
B8	7
B9	-1
B10	-3
B11	10
B12	0
B13	0
B14	23
B15	7
B16	36
B17	33
B18	16
B19	20
B20	24
B21	21
B22	-12
B23	-6

Biological target: T1, recombinant, soluble human ASGR-1
Assay: Octet BLI dissociation, pH 5.6 minus calcium
Method in brief: as §1

Binder	% Change Compared to pH 7.4 + Calcium [%]
B1	-3
B2	-3
B3	-5
B4	-5
B5	-2
B6	14
B7	-1
B8	31
B9	10
B10	12
B11	47
B12	29
B13	45
B14	64
B15	61
B16	52
B17	62
B18	42
B19	64
B20	75
B21	16
B22	-6
B23	-6

Biological target: T1, recombinant, soluble human ASGR-1
Assay: Octet BLI dissociation, pH 7.4 minus calcium
Method in brief: as §1

Binder	% Change Compared to pH 7.4 + Calcium [%]
B1	1
B2	-1
B3	-4
B4	-3
B5	6
B6	13
B7	1
B8	36
B9	13
B10	14
B11	45
B12	17
B13	25
B14	72
B15	34
B16	81
B17	100
B18	65
B19	68
B20	79
B21	75
B22	-1
B23	-1
